Literature values in publication PMC12667676.

Molecular target: MCHR1 (Homo sapiens) (UniProt Q99705)
UniProt Q99705, sequence (Q99705 whole entry): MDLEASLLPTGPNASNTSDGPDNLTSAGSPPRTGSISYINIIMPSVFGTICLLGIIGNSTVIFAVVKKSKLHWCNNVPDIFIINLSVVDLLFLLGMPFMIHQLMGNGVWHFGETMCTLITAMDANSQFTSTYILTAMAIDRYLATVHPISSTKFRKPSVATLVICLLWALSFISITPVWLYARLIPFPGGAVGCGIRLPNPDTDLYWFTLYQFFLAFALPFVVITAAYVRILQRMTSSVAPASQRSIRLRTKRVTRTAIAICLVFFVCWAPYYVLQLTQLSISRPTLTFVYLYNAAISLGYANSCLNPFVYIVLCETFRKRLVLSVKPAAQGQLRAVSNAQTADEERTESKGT

## melanin-concentrating hormone (from UniProt P20382)
  Kd: 3.1 nM
